Assay results reported in patent US12606635B2, “Glypican-2-binding moieties, chimeric antigen receptors and uses thereof” (Nanjing Legend Biotech Co., Ltd., priority 2020, dated 2026).

T1: recombinant human GPC2 protein (Homo sapiens, UniProt Q8N158)
T1 construct: His; purchased RD System (R&D Systems) 2304-GP
T1 sequence (Q8N158 24-554): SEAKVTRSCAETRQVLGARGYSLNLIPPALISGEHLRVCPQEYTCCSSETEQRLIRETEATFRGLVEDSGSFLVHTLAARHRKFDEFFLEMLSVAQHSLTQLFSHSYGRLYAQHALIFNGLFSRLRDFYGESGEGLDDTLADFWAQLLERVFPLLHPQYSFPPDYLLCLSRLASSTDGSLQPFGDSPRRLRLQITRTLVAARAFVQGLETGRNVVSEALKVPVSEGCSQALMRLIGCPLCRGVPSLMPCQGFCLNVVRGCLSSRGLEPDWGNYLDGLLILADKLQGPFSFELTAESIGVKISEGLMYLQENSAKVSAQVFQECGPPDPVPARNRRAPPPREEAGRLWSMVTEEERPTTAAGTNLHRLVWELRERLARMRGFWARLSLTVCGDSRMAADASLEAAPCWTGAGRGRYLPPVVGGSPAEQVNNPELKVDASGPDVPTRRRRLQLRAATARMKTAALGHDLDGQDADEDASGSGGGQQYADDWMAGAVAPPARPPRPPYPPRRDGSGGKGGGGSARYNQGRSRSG

T2: recombinant human GPC2-His protein (Homo sapiens, UniProt Q8N158)
T2 construct: His
T2 sequence (Q8N158 24-554): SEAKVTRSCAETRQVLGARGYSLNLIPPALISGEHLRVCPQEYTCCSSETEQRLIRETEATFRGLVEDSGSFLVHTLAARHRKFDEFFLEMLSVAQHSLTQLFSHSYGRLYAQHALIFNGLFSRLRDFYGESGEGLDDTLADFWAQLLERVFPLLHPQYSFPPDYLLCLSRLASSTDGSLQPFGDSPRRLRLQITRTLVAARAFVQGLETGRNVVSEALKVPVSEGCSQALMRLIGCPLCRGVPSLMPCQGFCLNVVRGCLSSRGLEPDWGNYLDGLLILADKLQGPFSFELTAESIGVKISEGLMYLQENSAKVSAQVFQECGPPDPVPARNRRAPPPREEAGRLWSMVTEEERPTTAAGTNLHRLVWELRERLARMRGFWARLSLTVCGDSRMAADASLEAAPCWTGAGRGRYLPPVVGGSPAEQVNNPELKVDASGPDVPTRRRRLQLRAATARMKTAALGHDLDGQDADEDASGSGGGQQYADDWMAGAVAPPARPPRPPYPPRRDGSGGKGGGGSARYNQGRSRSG

T3: human GPC2 expressing cells SH-SY5Y (Homo sapiens, UniProt Q8N158)
T3 construct: host or cells: SH-SY5Y
T3 sequence (Q8N158 24-554): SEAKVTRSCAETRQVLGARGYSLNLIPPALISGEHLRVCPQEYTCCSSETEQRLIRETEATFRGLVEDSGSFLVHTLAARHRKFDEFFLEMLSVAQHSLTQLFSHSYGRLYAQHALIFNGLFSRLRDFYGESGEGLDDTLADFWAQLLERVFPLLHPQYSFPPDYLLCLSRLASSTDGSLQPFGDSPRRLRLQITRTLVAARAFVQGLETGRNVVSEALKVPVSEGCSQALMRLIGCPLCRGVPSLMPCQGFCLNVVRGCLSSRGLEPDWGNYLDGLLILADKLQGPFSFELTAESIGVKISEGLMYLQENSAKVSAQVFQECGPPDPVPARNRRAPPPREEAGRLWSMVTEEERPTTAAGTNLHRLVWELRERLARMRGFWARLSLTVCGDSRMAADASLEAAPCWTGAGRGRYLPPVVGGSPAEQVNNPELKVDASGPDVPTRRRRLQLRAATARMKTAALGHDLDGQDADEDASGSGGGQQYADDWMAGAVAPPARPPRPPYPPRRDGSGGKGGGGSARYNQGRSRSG

T4: human GPC2 expressing cells HEK293T/hGPC2 (Homo sapiens, UniProt Q8N158)
T4 construct: expressed in transfected cells; host or cells: HEK293T (ATCC, #CRL-1573), plvx-EF1α-puro plasmid
T4 sequence (Q8N158 24-554): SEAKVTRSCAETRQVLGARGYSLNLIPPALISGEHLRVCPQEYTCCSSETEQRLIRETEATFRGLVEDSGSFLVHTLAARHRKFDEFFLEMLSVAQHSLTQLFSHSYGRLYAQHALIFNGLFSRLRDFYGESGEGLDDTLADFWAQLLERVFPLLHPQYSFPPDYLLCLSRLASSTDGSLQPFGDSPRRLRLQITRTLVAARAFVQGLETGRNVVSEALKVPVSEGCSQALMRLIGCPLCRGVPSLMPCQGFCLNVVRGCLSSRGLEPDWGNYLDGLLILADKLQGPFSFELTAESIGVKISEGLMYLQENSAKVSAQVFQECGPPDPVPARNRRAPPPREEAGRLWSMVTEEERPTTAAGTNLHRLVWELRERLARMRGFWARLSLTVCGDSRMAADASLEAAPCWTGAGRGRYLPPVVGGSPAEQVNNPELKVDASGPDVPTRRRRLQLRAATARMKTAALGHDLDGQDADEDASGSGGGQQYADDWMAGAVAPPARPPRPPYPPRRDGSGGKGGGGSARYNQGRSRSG


Assays:
[1] = tested on: other recombinant human and murine GPC family proteins (human GPC1, GPC3, GPC4, GPC5, GPC6, mouse GPC2); experiment: ELISA-based specific binding assay, cross-reactivity; settings: FIG. 3A-3G
Method: (§1) To evaluate the specificity of humanized anti-GPC2 VHH5 to recombinant human GPC2 protein, an ELISA-based binding assay was conducted to determine the differential target proteins binding of anti-GPC2 VHH5. Briefly, microplates were coated with 2 μg/mL recombinant human GPC1-His (RD System, Cat #4519-GP), GPC2-His (RD System, Cat #2304-GP), GPC3-His (ACRO, Cat #GP3-H5223), GPC4-Fc (RD System, Cat #9195-GP), GPC5-His (RD System, Cat #2607-G5/CF), GPC6-His (RD System, Cat #2845-GP) or recombinant mouse GPC2-His (RD System, Cat #2355-GP) proteins. Recombinant human protein coated plates were blocked with skim milk. Serially diluted humanized VHH-hIgG1Fc recombinant antibodies were added to each well of the plates and incubated at 4° C. for 1.5 h. Samples were further labelled with HRP-conjugated goat anti human IgG (H+L) secondary antibody (Genescript, Cat #A00166-1) and signal was developed with 3,3′,5,5′-Tetramethylbenzidine (TMB) substrate according to manufacturer's instruction. For the GPC4, VHH-His recombinant antibodies and anti-His tag secondary antibody (Genescript, Cat #A00612) were added to the GPC4-Fc coated plates instead. Optic density at 450 nm was measured by plate reader.

[2] = molecular target: T1, recombinant human GPC2 protein; experiment: ELISA-based specific binding assay, human GPC2; settings: FIG. 3A-3G
Method: as §1

[3] = molecular target: T2, recombinant human GPC2-His protein; experiment: SPR (Biacore T200) affinity of anti-GPC2 VHH-hIgG1Fc; settings: 1:1 binding model
Method: Each of the exemplary anti-GPC2 VHH sequences was cloned into a vector comprising a human IgG1Fc fragment (hlgG1Fc) sequence to facilitate recombinant expression of anti-GPC2 VHH-hlgG1Fc. Recombinant proteins were obtained and purified for SPR assays. The affinity of each anti-GPC2 VHH-hIgG1Fc for GPC2 was determined by SPR using a BIACORE® T200 analytical system (GE Healthcare). Briefly, recombinant human GPC2-His protein was covalently coupled to a CM5(s) sensor chip using an amine coupling kit. Exemplary VHH-hIgG1Fc proteins were serially diluted in running buffer (10 mM HEPES, 150 mM NaCl, 3 mM EDTA, 0.05% Tween-20, pH 7.4) and injected over the chip cell at a flowrate of 100 μL/min for 100 seconds followed by buffer-only injection for 300 seconds to allow for antibody dissociation. The dissociation […] (KD) were determined using the BIACORE® T200 evaluation software version 3.0 (Langmuir binding, local fit, 1:1 binding model).

[4] = tested on: cynomolgus monkey GPC2 expressing cell HEK293T/cynoGPC2; experiment: Flow cytometry binding of VHH-His proteins to HEK293T/cynoGPC2; settings: FIG. 4A-4C
Text: (§2) Recombinant anti-GPC2 VHH-His proteins were constructed by fusing the anti-GPC2 VHH sequence to a mouse Ig heavy chain signal peptide sequence (N′-MGWSWILLFLLSVTAGVHS-C; SEQ ID NO: 179) at the N terminus, and a 6×His-tag (N′-HHHHHH-C; SEQ ID NO: 180) at the C terminus. The codons were further optimized for optimal expression in mammalian engineered immune effector cells. The obtained nucleotide sequences were then cloned into a mammalian expression vector pCDNA3.4 to provide expression plasmids.
(§3) Binding affinities of humanized VHH proteins AS70950VH6, AS71529VH6, AS72669VH6 and AS71529VH6-AS70950VH6 anti-GPC2 VHH-HIS proteins to human GPC2 expressing cells (SH-SY5Y and HEK293T/hGPC2) and cynomolgus monkey GPC2 expressing cell (HEK293T/cynoGPC2) were determined using flow cytometry. Briefly, serially diluted anti-GPC2 VHH-HIS proteins were incubated with 2×10^5 target cells at 4° C. for 30 mins. After washing, cells were further labelled with THE™ His tag Antibody (iFluor 647) (Genescript, #A01802) at 4° C. for 30 mins. Fluorescence intensity was measured by flow cytometry. A four parameters variable slope curve was fitted to each group using GraphPad Prism for Windows Version 6.02.

[5] = molecular target: T3, human GPC2 expressing cells SH-SY5Y; experiment: Flow cytometry binding of VHH-His proteins to SH-SY5Y; settings: FIG. 4A-4C
Text: as §2, §3

[6] = molecular target: T4, human GPC2 expressing cells HEK293T/hGPC2; experiment: Flow cytometry binding of VHH-His proteins to HEK293T/hGPC2; settings: FIG. 4A-4C
Text: as §2, §3

Molecule	cross-reactivity with other recombinant human and murine GPC family proteins [1]	binding to recombinant human GPC2 protein [2]	ka [3]	kd [3]	binding to SH-SY5Y [5]	binding to HEK293T/hGPC2 [6]	binding to HEK293T/cynoGPC2 [4]
AS70950VH6-hIgG1Fc: AS70950VH6 VHH fused to human IgG1Fc fragment (protein, left off: a dimerising Fc or GST, AS70950VH6 VHH fused to human IgG1Fc fragment) EVQLVESGGGLVQPGGSLRLSCAISEFTYKNTCVGWFRQAPGKGREGVAAIDSDGNTNYVDSVKGRFTISQDNSKNTVYLQMNSLRAEDTAMYYCAAGAYCGRLLLWIGNYAYWGQGTLVTVSS	no cross-reactivity	high affinity	390000 M⁻¹ s⁻¹	0.00011 s⁻¹	–	–	–
AS70950VH6: humanized anti-GPC2 VHH, SEQ ID NO: 124; tested as VHH-HIS protein (protein, His tag; AS70950VH6, tested as VHH-HIS protein) VHH: EVQLVESGGGLVQPGGSLRLSCAISEFTYKNTCVGWFRQAPGKGREGVAAIDSDGNTNYVDSVKGRFTISQDNSKNTVYLQMNSLRAEDTAMYYCAAGAYCGRLLLWIGNYAYWGQGTLVTVSS	–	–	–	–	specifically bind	specifically bind	specifically bind
AS71529VH6-hIgG1Fc: AS71529VH6 VHH fused to human IgG1Fc fragment (protein, left off: a dimerising Fc or GST, AS71529VH6 VHH fused to human IgG1Fc fragment) EVQLVESGGGLVQPGGSLRLSCAVSEYRYSSRYCMGWFRQAPGKGREGVAAIDSNGSADYVDSVKGRFTISKDNSKNTLYLQMNSLRAEDTAMYYCAADHLAYDCYSGATSVFRYWGQGTLVTVSS	–	high affinity	850000 M⁻¹ s⁻¹	0.0044 s⁻¹	–	–	–
AS71529VH6-AS70950VH6: tandem humanized anti-GPC2 VHH, SEQ ID NO: 146; tested as VHH-HIS protein (protein, His tag; AS71529VH6-AS70950VH6, tested as VHH-HIS protein) VHH: EVQLVESGGGLVQPGGSLRLSCAVSEYRYSSRYCMGWFRQAPGKGREGVAAIDSNGSADYVDSVKGRFTISKDNSKNTLYLQMNSLRAEDTAMYYCAADHLAYDCYSGATSVFRYWGQGTLVTVSSGGGGSGGGGSGGGGSEVQLVESGGGLVQPGGSLRLSCAISEFTYKNTCVGWFRQAPGKGREGVAAIDSDGNTNYVDSVKGRFTISQDNSKNTVYLQMNSLRAEDTAMYYCAAGAYCGRLLLWIGNYAYWGQGTLVTVSS	–	–	–	–	specifically bind	specifically bind	specifically bind

Continued, in another order:

cross-reactivity with other recombinant human and murine GPC family proteins [1]	binding to recombinant human GPC2 protein [2]	ka [3]	kd [3]	binding to SH-SY5Y [5]	binding to HEK293T/hGPC2 [6]	Molecule	binding to HEK293T/cynoGPC2 [4]
–	–	–	–	specifically bind	specifically bind	AS71529VH6: humanized anti-GPC2 VHH, SEQ ID NO: 127; tested as VHH-HIS protein (protein, His tag; AS71529VH6, tested as VHH-HIS protein) VHH: EVQLVESGGGLVQPGGSLRLSCAVSEYRYSSRYCMGWFRQAPGKGREGVAAIDSNGSADYVDSVKGRFTISKDNSKNTLYLQMNSLRAEDTAMYYCAADHLAYDCYSGATSVFRYWGQGTLVTVSS	specifically bind
no cross-reactivity	high affinity	530000 M⁻¹ s⁻¹	0.00019 s⁻¹	–	–	AS79236VH6-hIgG1Fc: AS79236VH6 VHH fused to human IgG1Fc fragment (protein, left off: a dimerising Fc or GST, AS79236VH6 VHH fused to human IgG1Fc fragment) EVQLVESGGGLVQPGGSLRLSCAVSGYTYSSYCMAWFRQAPGKGLEGVASIDAGGRTTYVDSVKGRFTISKDNAKNSLYLQMNSLRAEDTAMYYCAVDVRTRCGGTWDGEAVYFPYWGQGTLVTVSS	–
–	–	–	–	specifically bind	specifically bind	AS72669VH6: humanized anti-GPC2 VHH, SEQ ID NO: 130; tested as VHH-HIS protein (protein, His tag; AS72669VH6, tested as VHH-HIS protein) VHH: QVQLVESGGGVVQPGGSLRLSCAASRFTYSSYCMGWIRQAPGKGREGVAIFYTGGGRTYYADSVKGRFTISQDNSKNTLYLQMNSLRAEDTAVYYCVAGFYCSGGYWEGDFGYWGQGTLVTVSS	specifically bind
no cross-reactivity	high affinity	200000 M⁻¹ s⁻¹	0.00017 s⁻¹	–	–	AS78117VH4-hIgG1Fc: AS78117VH4 VHH fused to human IgG1Fc fragment (protein, left off: a dimerising Fc or GST, AS78117VH4 VHH fused to human IgG1Fc fragment) EVQLVESGGGLVQPGGSLRLSCIVSRYTYATYSMAWFRQAPGKGLEGVSGLDSVGATGYAESVKGRFTISRDNSKNTLYLQMNSLRAEDTAVYYCVVDPASAKVTYGSWSTPSYAYWGQGTLVTVSS	–
